For assay [1], the target named is T1, FcγRIIb, extracellular domain with C-terminal His tag (human, UniProt P31994 43-217).
T1 construct: extracellular domain; Soluble receptor expressed in FreeStyle293 cells; analyte in Biacore; also called FcgRIIb; 2b; not shown: C-terminal His tag
T1 sequence (looked up): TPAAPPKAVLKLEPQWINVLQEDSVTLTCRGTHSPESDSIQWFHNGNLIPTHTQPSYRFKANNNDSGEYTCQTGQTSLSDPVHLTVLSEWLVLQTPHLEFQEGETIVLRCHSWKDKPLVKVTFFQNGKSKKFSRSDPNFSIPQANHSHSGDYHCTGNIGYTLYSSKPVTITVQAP
The assay can be described thus: SPR (Biacore), captured antibody, FcγR as analyte. On the technique in general: Surface plasmon resonance follows binding to a sensor surface in real time, without labels.

For assay [2], the target named is T2, FcγRIIa H (FcγRIIa, type H allotype, His at position 131), extracellular domain with C-terminal His tag (human, UniProt P12318 34-217).
T2 construct: extracellular domain; Soluble receptor expressed in FreeStyle293 cells; analyte in Biacore; also called FcgRIIa H; 2aH; not shown: C-terminal His tag
T2 sequence (looked up): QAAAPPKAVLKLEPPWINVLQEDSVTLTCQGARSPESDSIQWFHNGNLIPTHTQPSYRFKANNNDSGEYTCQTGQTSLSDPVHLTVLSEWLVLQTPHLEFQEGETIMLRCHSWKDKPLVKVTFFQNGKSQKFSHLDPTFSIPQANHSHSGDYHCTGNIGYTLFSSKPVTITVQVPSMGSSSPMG
Kind of assay: SPR (Biacore), captured antibody, FcγR as analyte.

Assay [3] deals with T2, FcγRIIa H (FcγRIIa, type H allotype, …). Kind of assay: ratio of He/Con_2aH to He/Con_2b (FcγRIIa H over FcγRIIb), SPR.

B1: GpH7-A5/GpH7-B3 variant E269_15Y/GpL16-k0 (antibody, human IgG1, kappa)
heavy 1: not shown
heavy 2: not shown
light: DIVMTQSPLSLPVTPGEPASISCQASESLVHSNRNTYLHWYLQKPGQSPQLLIYKVSNRFSGVPDRFSGSGSGTDFTLKISRVEAEDVGVYYCSQNTHVPPTFGQGTKVEIERTVAAPSVFIFPPSDEQLKSGTASVVCLLNNFYPREAKVQWKVDNALQSGNSQESVTEQDSKDSTYSLSSTLTLSKADYEKHKVYACEVTHQGLSSPVTKSFNRGEC
notes: Heterodimerized IgG1; mutation only in the GpH7-B3 chain; also called He Ab
As to B1, the He/Con_2b in assay [1] was 44.7 relative, GpH7-A5/GpH7-B3/GpL16-k0 = 100. Besides, the He/Con_2aH in assay [2] was 70.4 relative, GpH7-A5/GpH7-B3/GpL16-k0 = 100. Moreover, in assay [3], the “He_2aH/2b (IIaH/IIb)” value worked out at 1.57.

B2: GpH7-A5/GpH7-B3 variant E269_08L/GpL16-k0 (antibody, human IgG1, kappa)
heavy 1: not shown
heavy 2: not shown
light: DIVMTQSPLSLPVTPGEPASISCQASESLVHSNRNTYLHWYLQKPGQSPQLLIYKVSNRFSGVPDRFSGSGSGTDFTLKISRVEAEDVGVYYCSQNTHVPPTFGQGTKVEIERTVAAPSVFIFPPSDEQLKSGTASVVCLLNNFYPREAKVQWKVDNALQSGNSQESVTEQDSKDSTYSLSSTLTLSKADYEKHKVYACEVTHQGLSSPVTKSFNRGEC
notes: as for B1
As to B2, the He/Con_2b in assay [1] is 42.9 relative, GpH7-A5/GpH7-B3/GpL16-k0 = 100. In assay [2], the He/Con_2aH was 67.4 relative, GpH7-A5/GpH7-B3/GpL16-k0 = 100. Also, the “He_2aH/2b (IIaH/IIb)” value in assay [3] came to 1.57.

B3: GpH7-A5/GpH7-B3 variant E269_13S/GpL16-k0 (antibody, human IgG1, kappa)
heavy 1: not shown
heavy 2: not shown
light: DIVMTQSPLSLPVTPGEPASISCQASESLVHSNRNTYLHWYLQKPGQSPQLLIYKVSNRFSGVPDRFSGSGSGTDFTLKISRVEAEDVGVYYCSQNTHVPPTFGQGTKVEIERTVAAPSVFIFPPSDEQLKSGTASVVCLLNNFYPREAKVQWKVDNALQSGNSQESVTEQDSKDSTYSLSSTLTLSKADYEKHKVYACEVTHQGLSSPVTKSFNRGEC
notes: as for B1
As to B3, the He/Con_2b in assay [1] was 47.8 relative, GpH7-A5/GpH7-B3/GpL16-k0 = 100. For the same molecule, the He/Con_2aH in assay [2] was 70 relative, GpH7-A5/GpH7-B3/GpL16-k0 = 100. Further, in assay [3], the “He_2aH/2b (IIaH/IIb)” value came to 1.46.

B4: GpH7-A5/GpH7-B3 variant E269_12R/GpL16-k0 (antibody, human IgG1, kappa)
heavy 1: not shown
heavy 2: not shown
light: DIVMTQSPLSLPVTPGEPASISCQASESLVHSNRNTYLHWYLQKPGQSPQLLIYKVSNRFSGVPDRFSGSGSGTDFTLKISRVEAEDVGVYYCSQNTHVPPTFGQGTKVEIERTVAAPSVFIFPPSDEQLKSGTASVVCLLNNFYPREAKVQWKVDNALQSGNSQESVTEQDSKDSTYSLSSTLTLSKADYEKHKVYACEVTHQGLSSPVTKSFNRGEC
notes: as for B1
Consider B4, for which the He/Con_2b in assay [1] is 25.2 relative, GpH7-A5/GpH7-B3/GpL16-k0 = 100. Moreover, the He/Con_2aH in assay [2] was 46.8 relative, GpH7-A5/GpH7-B3/GpL16-k0 = 100. The “He_2aH/2b (IIaH/IIb)” value in assay [3] was determined as 1.86.

B5: GpH7-A5/GpH7-B3 variant E269_19Q/GpL16-k0 (antibody, human IgG1, kappa)
heavy 1: not shown
heavy 2: not shown
light: DIVMTQSPLSLPVTPGEPASISCQASESLVHSNRNTYLHWYLQKPGQSPQLLIYKVSNRFSGVPDRFSGSGSGTDFTLKISRVEAEDVGVYYCSQNTHVPPTFGQGTKVEIERTVAAPSVFIFPPSDEQLKSGTASVVCLLNNFYPREAKVQWKVDNALQSGNSQESVTEQDSKDSTYSLSSTLTLSKADYEKHKVYACEVTHQGLSSPVTKSFNRGEC
notes: as for B1
Regarding B5, the He/Con_2b in assay [1] is 44.3 relative, GpH7-A5/GpH7-B3/GpL16-k0 = 100. Further, the He/Con_2aH in assay [2] is 80.2 relative, GpH7-A5/GpH7-B3/GpL16-k0 = 100. Moreover, the “He_2aH/2b (IIaH/IIb)” value in assay [3] worked out at 1.81.

B6: GpH7-A5/GpH7-B3 variant E269_07I/GpL16-k0 (antibody, human IgG1, kappa)
heavy 1: not shown
heavy 2: not shown
light: DIVMTQSPLSLPVTPGEPASISCQASESLVHSNRNTYLHWYLQKPGQSPQLLIYKVSNRFSGVPDRFSGSGSGTDFTLKISRVEAEDVGVYYCSQNTHVPPTFGQGTKVEIERTVAAPSVFIFPPSDEQLKSGTASVVCLLNNFYPREAKVQWKVDNALQSGNSQESVTEQDSKDSTYSLSSTLTLSKADYEKHKVYACEVTHQGLSSPVTKSFNRGEC
notes: as for B1
Turning to B6, in assay [1], the He/Con_2b was 43.9 relative, GpH7-A5/GpH7-B3/GpL16-k0 = 100. Besides, in assay [2], the He/Con_2aH was 66.6 relative, GpH7-A5/GpH7-B3/GpL16-k0 = 100. Further, the “He_2aH/2b (IIaH/IIb)” value in assay [3] was 1.52.

B7: GpH7-A5/GpH7-B3 variant E269_16H/GpL16-k0 (antibody, human IgG1, kappa)
heavy 1: not shown
heavy 2: not shown
light: DIVMTQSPLSLPVTPGEPASISCQASESLVHSNRNTYLHWYLQKPGQSPQLLIYKVSNRFSGVPDRFSGSGSGTDFTLKISRVEAEDVGVYYCSQNTHVPPTFGQGTKVEIERTVAAPSVFIFPPSDEQLKSGTASVVCLLNNFYPREAKVQWKVDNALQSGNSQESVTEQDSKDSTYSLSSTLTLSKADYEKHKVYACEVTHQGLSSPVTKSFNRGEC
notes: as for B1
B7: the He/Con_2b in assay [1] was 38.5 relative, GpH7-A5/GpH7-B3/GpL16-k0 = 100. Moreover, in assay [2], the He/Con_2aH was 59 relative, GpH7-A5/GpH7-B3/GpL16-k0 = 100. In addition, in assay [3], the “He_2aH/2b (IIaH/IIb)” value came out at 1.53.

B8: GpH7-A5/GpH7-B3 variant Q295_03V/GpL16-k0 (antibody, human IgG1, kappa)
heavy 1: not shown
heavy 2: not shown
light: DIVMTQSPLSLPVTPGEPASISCQASESLVHSNRNTYLHWYLQKPGQSPQLLIYKVSNRFSGVPDRFSGSGSGTDFTLKISRVEAEDVGVYYCSQNTHVPPTFGQGTKVEIERTVAAPSVFIFPPSDEQLKSGTASVVCLLNNFYPREAKVQWKVDNALQSGNSQESVTEQDSKDSTYSLSSTLTLSKADYEKHKVYACEVTHQGLSSPVTKSFNRGEC
notes: as for B1
With B8, in assay [1], the He/Con_2b was 75.7 relative, GpH7-A5/GpH7-B3/GpL16-k0 = 100. Also, the He/Con_2aH in assay [2] is 92 relative, GpH7-A5/GpH7-B3/GpL16-k0 = 100. The “He_2aH/2b (IIaH/IIb)” value in assay [3] worked out at 1.22.

These data come from US20180155451A1 (published 2018).
